The values that follow are results of earlier work, collected in publication PMC4411102 (PLoS ONE, 2015).

The data set has as its system HIV. From the text: HIV-1 infection can be targeted at various stages, for example, viral entry, viral replication or assembly of viral components. HIV entry into the host cells is facilitated by binding of viral envelope glycoprotein (gp120) to host CD4 receptor [3, 4]. CD4-gp120 interaction initiates a cascade of events that stimulates gp41 to promote viral and host membrane fusion. Inhibition of gp120-CD4 interaction or virus-host cell fusion thus appears to be an attractive strategy to prevent HIV-1 infection. Towards this, significant advances have been made. […] Moreover, some of the AMPs cause adverse effects on vaginal commensals like lactobacilli which are required to maintain low pH in vaginal mucosa.

B1: human defensin-5: antimicrobial peptide (peptide, UniProt Q01523 20-94, looked up)
Defensin alpha 5: ESLQERADEATTQKQSGEDNQDLAISFAGNGLSALRTSGSQARATCYCRTGRCATRESLSGVCEISGRLYRLCCR
modifications: Defensin-5
notes: antimicrobial peptide
For the molecule B1, the “Effect on HIV infection” value is “exacerbate HIV infection”.

B2: secretory leucocyte protease inhibitor (SLPI): natural antimicrobial peptide (protein, UniProt P03973 26-132, looked up)
Antileukoproteinase: SGKSFKAGVCPPKKSAQCLRYKKPECQSDWQCPGKKRCCPDTCGIKCLDPVDTPNPTRRKPGKCPVTYGQCLMLNPPNFCEMDGQCKRDLKCCMGMCGKSCVSPVKA
As to B2, the Anti-HIV activity entry was “reported to have anti-HIV activity”.
